Experimental findings from patent publication US20250188166A1 are described below.

Experiment [1] addresses native IL-18 wild-type (SEQ ID NO: 1) (human) (UniProt Q14116). Description: cell-based or functional assay.
Experiment [2] addresses IL-18 polypeptide SEQ ID NO: 30 (E6K, V11I, C38A, K53A, T63A, C76A, C127A) (human) (UniProt Q14116). Description: cell-based or functional assay.

For “His-tag human IL-18 binding protein isoform a (from UniProt O95998 31-194)”, in experiment [1], the IC50 of IL-18BPa on IFNγ secretion, PD-1^negative Parental NK-92 is 2.97 nM and the IC50 of IL-18BPa on IFNγ secretion, PD-1^positive NK-92 is 2.67 nM. Moreover, in experiment [2], the IC50 of IL-18BPa on IFNγ secretion, PD-1^negative Parental NK-92 amounted to 110 nM and the IC50 of IL-18BPa on IFNγ secretion, PD-1^positive NK-92 is 80.3 nM.
